Consider one substance from PMC10861901.

pKd: −log10 of the molar value.

The test concerns the target A. fulgidus DsrC-trisulfide (Archaeoglobus fulgidus). In words: SPR.

As usually defined, the pKd is −log10 of the Kd, conventionally taken in molar units. A high value points to a small Kd.

As for “DsrMKJOP complex of Archaeoglobus fulgidus (from UniProt O29749 1-332; O29748 1-555; O29747 1-142; O29751 27-269; O29750 1-395)”, the pKd was 6.70.
